US20120034160A1 (AbbVie / Abbott, published 2012)

How the values were obtained:
Recombinant Human IL-1β [1] = biological target: T1, Recombinant Human IL-1β (human, UniProt P01584 117-269); test: Biacore SPR; N-terminal VD
T1 construct: bought reagent; also called IL-1B
Method in brief: (§1)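 Rate constants fitted globally to a 1:1 Langmuir model from antigen series of 10−200 nM flowed at 25 μl/min over captured antibody or DVD-Ig (anti-mouse IgG Fcγ capture, ligand at 25 μg/ml).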

Recombinant Human IL-1β [2] = biological target: T1, Recombinant Human IL-1β; test: Biacore SPR; C-terminal VD
Method in brief: as §1

Recombinant Human IL-17 = biological target: T2, Recombinant Human IL-17 (human, UniProt Q16552 20-155, limits assumed); test: Biacore SPR; N-terminal VD
T2 construct: bought reagent
T2 sequence (looked up): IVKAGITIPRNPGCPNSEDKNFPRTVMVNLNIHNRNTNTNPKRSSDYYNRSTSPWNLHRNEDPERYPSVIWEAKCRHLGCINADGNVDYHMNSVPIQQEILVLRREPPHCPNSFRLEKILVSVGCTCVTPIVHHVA
Method in brief: as §1

B1: DVD1282 (bispecific antibody, human IgG1, kappa)
heavy: not shown
light: DIQMTQSPSSLSASVGDRVTITCRASGNIHNYLTWYQQTPGKAPKLLIYNAKTLADGVPSRFSGSGSGTDYTFTISSLQPEDIATYYCQHFWSIPYTFGQGTKLQITRTVAAPEIVLTQSPDFQSVTPKEKVTITCRASQNIGSELHWYQQKPDQSPKLLIKYASHSISGVPSRFSGSGSGTDFTLTINGLEAEDAATYYCHQSDTLPHTFGQGTKVDIKRTVAAPSVFIFPPSDEQLKSGTASVVCLLNNFYPREAKVQWKVDNALQSGNSQESVTEQDSKDSTYSLSSTLTLSKADYEKHKVYACEVTHQGLSSPVTKSFNRGEC
notes: V1 wt hIgG1, V2 kappa; also called DVD1282H; DVD1282L
- Kd (Recombinant Human IL-1β [1]): 0.043 nM
- koff (Recombinant Human IL-1β [1]): 7.2e-05 s⁻¹
- kon (Recombinant Human IL-1β [1]): 1.7e+06 M⁻¹ s⁻¹

B2: DVD1284 (bispecific antibody, human IgG1, kappa)
heavy: not shown
light: DIQMTQSPSSLSASVGDRVTITCRASGNIHNYLTWYQQTPGKAPKLLIYNAKTLADGVPSRFSGSGSGTDYTFTISSLQPEDIATYYCQHFWSIPYTFGQGTKLQITRTVAAPEIVLTQSPDFQSVTPKEKVTITCRASQNIGSELHWYQQKPDQSPKLLIKYASHSISGVPSRFSGSGSGTDFTLTINGLEAEDAATYYCHQSDTLPHTFGQGTKVDIKRTVAAPSVFIFPPSDEQLKSGTASVVCLLNNFYPREAKVQWKVDNALQSGNSQESVTEQDSKDSTYSLSSTLTLSKADYEKHKVYACEVTHQGLSSPVTKSFNRGEC
notes: V1 wt hIgG1, V2 kappa; also called DVD1284H; DVD1284L
- Kd (Recombinant Human IL-1β [1]): 0.017 nM
- koff (Recombinant Human IL-1β [1]): 1.9e-05 s⁻¹
- kon (Recombinant Human IL-1β [1]): 1.1e+06 M⁻¹ s⁻¹

B3: DVD1286 (bispecific antibody, human IgG1, kappa)
heavy: not shown
light: DTQVTQSPSSLSASVGDRVTITCITSTDIDVDMNWYQQKPGKPPKLLISQGNTLRPGVPSRFSSSGSGTDFTFTISSLQPEDFATYYCLQSDNLPLTFGQGTKLEIKRTVAAPEIVLTQSPDFQSVTPKEKVTITCRASQNIGSELHWYQQKPDQSPKLLIKYASHSISGVPSRFSGSGSGTDFTLTINGLEAEDAATYYCHQSDTLPHTFGQGTKVDIKRTVAAPSVFIFPPSDEQLKSGTASVVCLLNNFYPREAKVQWKVDNALQSGNSQESVTEQDSKDSTYSLSSTLTLSKADYEKHKVYACEVTHQGLSSPVTKSFNRGEC
notes: DVD-Ig, outer AB270, inner AB275, linker set 1; V1 wt hIgG1, V2 kappa; also called DVD1286H; DVD1286L
- Kd (Recombinant Human IL-1β [1]): 0.07 nM
- koff (Recombinant Human IL-1β [1]): 0.0005 s⁻¹
- kon (Recombinant Human IL-1β [1]): 7.2e+06 M⁻¹ s⁻¹

B4: DVD1288 (bispecific antibody, human IgG1, kappa)
heavy: not shown
light: DTVVTQSPAFLSVTPGEKVTITCITSTDIDVDMNWYQQKPDQPPKLLISQGNTLRPGVPSRFSSSGSGTDFTFTISSLEAEDAATYYCLQSDNLPLTFGQGTKLEIKRTVAAPEIVLTQSPDFQSVTPKEKVTITCRASQNIGSELHWYQQKPDQSPKLLIKYASHSISGVPSRFSGSGSGTDFTLTINGLEAEDAATYYCHQSDTLPHTFGQGTKVDIKRTVAAPSVFIFPPSDEQLKSGTASVVCLLNNFYPREAKVQWKVDNALQSGNSQESVTEQDSKDSTYSLSSTLTLSKADYEKHKVYACEVTHQGLSSPVTKSFNRGEC
notes: DVD-Ig, outer AB271, inner AB275, linker set 1; V1 wt hIgG1, V2 kappa; also called DVD1288H; DVD1288L
- Kd (Recombinant Human IL-1β [1]): 0.076 nM
- koff (Recombinant Human IL-1β [1]): 0.00046 s⁻¹
- kon (Recombinant Human IL-1β [1]): 6.1e+06 M⁻¹ s⁻¹

B5: DVD1628 (bispecific antibody, human IgG1, kappa)
heavy: not shown
light: DIQMTQSPSSLSASVGDRVTITCRASSGIISYIDWFQQKPGKAPKRLIYATFDLASGVPSRFSGSGSGTDYTLTISSLQPEDFATYYCRQVGSYPETFGQGTKLEIKRTVAAPETTVTQSPSSLSASVGDRVTITCITSTDIDVDMNWYQQKPGKPPKLLISQGNTLRPGVPSRFSSSGSGTDFTFTISSLQPEDFATYYCLQSDNLPLTFGQGTKLEIKRTVAAPSVFIFPPSDEQLKSGTASVVCLLNNFYPREAKVQWKVDNALQSGNSQESVTEQDSKDSTYSLSSTLTLSKADYEKHKVYACEVTHQGLSSPVTKSFNRGEC
notes: DVD-Ig, outer AB273, inner AB272, linker set 3; V1 wt hIgG1, V2 kappa; also called DVD1628H; DVD1628L
- Kd (Recombinant Human IL-1β [2]): 1 nM
- koff (Recombinant Human IL-1β [2]): 0.00049 s⁻¹
- kon (Recombinant Human IL-1β [2]): 490000 M⁻¹ s⁻¹
- Kd (Recombinant Human IL-17): 5.5 pM
- koff (Recombinant Human IL-17): 2.2e-05 s⁻¹
- kon (Recombinant Human IL-17): 4e+06 M⁻¹ s⁻¹

B6: DVD1630 (bispecific antibody, human IgG1, kappa)
heavy: not shown
light: EIVLTQSPDFQSVTPKEKVTITCRASQDIGSELHWYQQKPDQPPKLLIKYASHSTSGVPSRFSGSGSGTDFTLTINGLEAEDAGTYYCHQTDSLPYTFGPGTKVDIKRTVAAPDIQMTQSPSSLSASVGDRVTITCRASGNIHNYLTWYQQTPGKAPKLLIYNAKTLADGVPSRFSGSGSGTDYTFTISSLQPEDIATYYCQHFWSIPYTFGQGTKLQITRTVAAPSVFIFPPSDEQLKSGTASVVCLLNNFYPREAKVQWKVDNALQSGNSQESVTEQDSKDSTYSLSSTLTLSKADYEKHKVYACEVTHQGLSSPVTKSFNRGEC
notes: V1 wt hIgG1, V2 kappa; also called DVD1630H; DVD1630L
- Kd (Recombinant Human IL-1β [2]): 0.45 nM
- koff (Recombinant Human IL-1β [2]): 7.6e-05 s⁻¹
- kon (Recombinant Human IL-1β [2]): 170000 M⁻¹ s⁻¹
- Kd (Recombinant Human IL-17): 4.5 pM
- koff (Recombinant Human IL-17): 1.6e-05 s⁻¹
- kon (Recombinant Human IL-17): 3.4e+06 M⁻¹ s⁻¹

B7: DVD1632 (bispecific antibody, human IgG1, kappa)
heavy: not shown
light: EIVLTQSPDFQSVTPKEKVTITCRASQDIGSELHWYQQKPDQPPKLLIKYASHSTSGVPSRFSGSGSGTDFTLTINGLEAEDAGTYYCHQTDSLPYTFGPGTKVDIKRTVAAPDIQMTQSPSSLSASVGDRVTITCRASGNIHNYLTWYQQTPGKAPKLLIYNAKTLADGVPSRFSGSGSGTDYTFTISSLQPEDIATYYCQHFWSIPYTFGQGTKLQITRTVAAPSVFIFPPSDEQLKSGTASVVCLLNNFYPREAKVQWKVDNALQSGNSQESVTEQDSKDSTYSLSSTLTLSKADYEKHKVYACEVTHQGLSSPVTKSFNRGEC
notes: V1 wt hIgG1, V2 kappa; also called DVD1632H; DVD1632L
- Kd (Recombinant Human IL-1β [2]): 0.42 nM
- koff (Recombinant Human IL-1β [2]): 4.7e-05 s⁻¹
- kon (Recombinant Human IL-1β [2]): 110000 M⁻¹ s⁻¹
- Kd (Recombinant Human IL-17): 5 pM
- koff (Recombinant Human IL-17): 1.6e-05 s⁻¹
- kon (Recombinant Human IL-17): 3.2e+06 M⁻¹ s⁻¹
